{"source": "the Human Domainome abundance scans (Beltran et al. 2025)", "parents": {"B1": {"name": "Protein S100-G, residues 1 to 79; numbered along this chain, P02633 (parent)", "chain": "MSAKKSPEELKGIFEKYAAKEGDPNQLSKEELKLLLQTEFPSLLKGPSTLDELFEELDKNGDGEVSFEEFQVLVKKISQ"}}, "note": "± gives the uncertainty stated by the source."}
{"variants_of": "B1", "assay": "abundance fitness (aPCA) (normalised: wild type 0, dead -1); higher = more abundant; growth selection in yeast, the domain comes from the species named", "details": "Bos taurus"}
{"variant": "V65N", "abundance fitness": "-0.2 ± 0.094"}
{"variant": "V65I", "abundance fitness": "0.007 ± 0.088"}
{"variant": "V65Q", "abundance fitness": "-0.165 ± 0.077"}
{"variant": "V65T", "abundance fitness": "0.037 ± 0.067"}
{"variant": "V65K", "abundance fitness": "-0.171 ± 0.081"}
{"variant": "V65A", "abundance fitness": "-0.091 ± 0.07"}
{"variant": "V65P", "abundance fitness": "-0.34 ± 0.073"}
{"variant": "V65C", "abundance fitness": "-0.05 ± 0.078"}
{"variant": "V65W", "abundance fitness": "-0.018 ± 0.074"}
{"variant": "V65D", "abundance fitness": "-0.86 ± 0.11"}
{"variant": "V65R", "abundance fitness": "-0.165 ± 0.064"}
{"variant": "V65S", "abundance fitness": "-0.109 ± 0.061"}
{"variant": "V65M", "abundance fitness": "0.025 ± 0.078"}
{"variant": "V65L", "abundance fitness": "0.044 ± 0.059"}
{"variant": "V65G", "abundance fitness": "-0.37 ± 0.071"}
{"variant": "V65F", "abundance fitness": "-0.002 ± 0.083"}
{"variant": "S66H", "abundance fitness": "-0.146 ± 0.083"}
{"variant": "S66N", "abundance fitness": "0.014 ± 0.078"}
{"variant": "S66R", "abundance fitness": "-0.036 ± 0.063"}
{"variant": "S66W", "abundance fitness": "-0.382 ± 0.088"}
{"variant": "S66I", "abundance fitness": "-0.101 ± 0.088"}
{"variant": "S66E", "abundance fitness": "0.048 ± 0.083"}
{"variant": "S66F", "abundance fitness": "-0.124 ± 0.084"}
{"variant": "S66T", "abundance fitness": "0.029 ± 0.07"}
{"variant": "S66V", "abundance fitness": "0 ± 0.067"}
{"variant": "S66Y", "abundance fitness": "-0.086 ± 0.079"}
{"variant": "S66L", "abundance fitness": "-0.137 ± 0.064"}
{"variant": "S66P", "abundance fitness": "-0.107 ± 0.074"}
{"variant": "S66Q", "abundance fitness": "-0.101 ± 0.083"}
{"variant": "S66A", "abundance fitness": "-0.009 ± 0.065"}
{"variant": "S66M", "abundance fitness": "0.008 ± 0.085"}
{"variant": "S66K", "abundance fitness": "-0.066 ± 0.077"}
{"variant": "S66C", "abundance fitness": "0.053 ± 0.086"}
{"variant": "S66G", "abundance fitness": "0.033 ± 0.068"}
{"variant": "E69A", "abundance fitness": "-0.04 ± 0.08"}
{"variant": "E69S", "abundance fitness": "-0.07 ± 0.068"}
{"variant": "E69M", "abundance fitness": "0.022 ± 0.091"}
{"variant": "E69H", "abundance fitness": "-0.007 ± 0.079"}
{"variant": "E69F", "abundance fitness": "-0.215 ± 0.1"}
{"variant": "E69K", "abundance fitness": "-0.016 ± 0.099"}
{"variant": "E69G", "abundance fitness": "0.06 ± 0.086"}
{"variant": "E69D", "abundance fitness": "0.009 ± 0.11"}
{"variant": "E69I", "abundance fitness": "-0.055 ± 0.094"}
{"variant": "E69C", "abundance fitness": "-0.074 ± 0.084"}
{"variant": "E69N", "abundance fitness": "-0.215 ± 0.1"}
{"variant": "E69V", "abundance fitness": "-0.021 ± 0.083"}
{"variant": "E69W", "abundance fitness": "-0.253 ± 0.085"}
{"variant": "E69Q", "abundance fitness": "0.016 ± 0.08"}
{"variant": "E69L", "abundance fitness": "-0.006 ± 0.061"}
{"variant": "E69R", "abundance fitness": "-0.056 ± 0.07"}
{"variant": "E69T", "abundance fitness": "-0.013 ± 0.077"}
{"variant": "F67Y", "abundance fitness": "-0.022 ± 0.087"}
{"variant": "F67R", "abundance fitness": "-0.141 ± 0.06"}
{"variant": "F67D", "abundance fitness": "-0.294 ± 0.084"}
{"variant": "F67N", "abundance fitness": "-0.131 ± 0.086"}
{"variant": "F67A", "abundance fitness": "-0.123 ± 0.067"}
{"variant": "F67E", "abundance fitness": "-0.063 ± 0.077"}
{"variant": "F67P", "abundance fitness": "-0.257 ± 0.077"}
{"variant": "F67K", "abundance fitness": "-0.172 ± 0.075"}
{"variant": "F67T", "abundance fitness": "-0.201 ± 0.07"}
{"variant": "F67Q", "abundance fitness": "0.04 ± 0.079"}
{"variant": "F67M", "abundance fitness": "-0.176 ± 0.072"}
{"variant": "F67H", "abundance fitness": "-0.12 ± 0.094"}
{"variant": "F67S", "abundance fitness": "-0.097 ± 0.065"}
{"variant": "F67I", "abundance fitness": "-0.161 ± 0.084"}
{"variant": "F67G", "abundance fitness": "-0.175 ± 0.063"}
{"variant": "F67V", "abundance fitness": "-0.059 ± 0.061"}
{"variant": "F67W", "abundance fitness": "-0.038 ± 0.071"}
{"variant": "F67L", "abundance fitness": "-0.059 ± 0.06"}
{"variant": "F67C", "abundance fitness": "-0.05 ± 0.079"}
{"variant": "L73K", "abundance fitness": "-0.413 ± 0.082"}
{"variant": "L73I", "abundance fitness": "-0.016 ± 0.082"}
{"variant": "L73H", "abundance fitness": "-0.151 ± 0.085"}
{"variant": "L73E", "abundance fitness": "-0.247 ± 0.099"}
{"variant": "L73C", "abundance fitness": "0.065 ± 0.11"}
{"variant": "L73D", "abundance fitness": "-0.668 ± 0.1"}
{"variant": "L73G", "abundance fitness": "-0.041 ± 0.078"}
{"variant": "L73F", "abundance fitness": "-0.124 ± 0.089"}
{"variant": "L73A", "abundance fitness": "-0.112 ± 0.072"}
{"variant": "V72M", "abundance fitness": "-0.035 ± 0.082"}
{"variant": "V72G", "abundance fitness": "0.038 ± 0.077"}
{"variant": "V72S", "abundance fitness": "-0.043 ± 0.066"}
{"variant": "V72K", "abundance fitness": "0.022 ± 0.085"}
{"variant": "V72H", "abundance fitness": "-0.029 ± 0.082"}
{"variant": "V72Q", "abundance fitness": "-0.059 ± 0.082"}
{"variant": "V72L", "abundance fitness": "-0.004 ± 0.063"}
{"variant": "V72P", "abundance fitness": "-0.018 ± 0.078"}
{"variant": "V72Y", "abundance fitness": "-0.059 ± 0.087"}
{"variant": "V72D", "abundance fitness": "-0.068 ± 0.1"}
{"variant": "V72T", "abundance fitness": "0.053 ± 0.079"}
{"variant": "V72N", "abundance fitness": "-0.012 ± 0.092"}
{"variant": "V72I", "abundance fitness": "-0.022 ± 0.083"}
{"variant": "V72F", "abundance fitness": "-0.032 ± 0.082"}
{"variant": "V72E", "abundance fitness": "-0.092 ± 0.1"}
{"variant": "V72A", "abundance fitness": "-0.034 ± 0.081"}
{"variant": "G63Y", "abundance fitness": "0.002 ± 0.12"}
{"variant": "E64D", "abundance fitness": "0.049 ± 0.083"}
{"variant": "E64C", "abundance fitness": "0.032 ± 0.08"}
{"variant": "E64Y", "abundance fitness": "-0.049 ± 0.08"}
{"variant": "E64I", "abundance fitness": "-0.101 ± 0.09"}
{"variant": "E64F", "abundance fitness": "-0.055 ± 0.085"}
{"variant": "E64K", "abundance fitness": "-0.028 ± 0.1"}
{"variant": "E64W", "abundance fitness": "0.155 ± 0.077"}
{"variant": "E64G", "abundance fitness": "0.059 ± 0.076"}
{"variant": "E64A", "abundance fitness": "0.01 ± 0.07"}
{"variant": "E64H", "abundance fitness": "0.048 ± 0.079"}
{"variant": "E64T", "abundance fitness": "0.073 ± 0.097"}
{"variant": "E64S", "abundance fitness": "0.002 ± 0.065"}
{"variant": "E64V", "abundance fitness": "-0.065 ± 0.067"}
{"variant": "E64M", "abundance fitness": "0.035 ± 0.096"}
{"variant": "E64Q", "abundance fitness": "0.081 ± 0.078"}
{"variant": "E64P", "abundance fitness": "0.008 ± 0.077"}
{"variant": "E64N", "abundance fitness": "-0.026 ± 0.12"}
{"variant": "E64L", "abundance fitness": "-0.055 ± 0.06"}
{"variant": "E68Q", "abundance fitness": "-0.099 ± 0.078"}
{"variant": "E68D", "abundance fitness": "-0.005 ± 0.083"}
{"variant": "E68A", "abundance fitness": "-0.016 ± 0.064"}
{"variant": "E68G", "abundance fitness": "-0.06 ± 0.067"}
{"variant": "E68Y", "abundance fitness": "-0.216 ± 0.076"}
{"variant": "E68K", "abundance fitness": "0.018 ± 0.075"}
{"variant": "E68F", "abundance fitness": "-0.062 ± 0.074"}
{"variant": "E68T", "abundance fitness": "-0.012 ± 0.062"}
{"variant": "E68L", "abundance fitness": "-0.098 ± 0.057"}
{"variant": "E68C", "abundance fitness": "-0.073 ± 0.079"}
{"variant": "E68M", "abundance fitness": "-0.044 ± 0.075"}
{"variant": "E68N", "abundance fitness": "-0.047 ± 0.071"}
{"variant": "E68H", "abundance fitness": "-0.001 ± 0.074"}
{"variant": "E68R", "abundance fitness": "-0.046 ± 0.061"}
{"variant": "E68P", "abundance fitness": "0.009 ± 0.067"}
{"variant": "Q71W", "abundance fitness": "-0.244 ± 0.092"}
{"variant": "Q71I", "abundance fitness": "-0.054 ± 0.077"}
{"variant": "Q71P", "abundance fitness": "-0.25 ± 0.072"}
{"variant": "Q71D", "abundance fitness": "-0.038 ± 0.087"}
{"variant": "Q71C", "abundance fitness": "-0.101 ± 0.089"}
{"variant": "Q71H", "abundance fitness": "-0.029 ± 0.078"}
{"variant": "Q71N", "abundance fitness": "-0.06 ± 0.082"}
{"variant": "Q71G", "abundance fitness": "0.009 ± 0.08"}
{"variant": "Q71K", "abundance fitness": "-0.074 ± 0.097"}
{"variant": "Q71M", "abundance fitness": "-0.032 ± 0.088"}
{"variant": "Q71Y", "abundance fitness": "-0.168 ± 0.087"}
{"variant": "Q71V", "abundance fitness": "-0.058 ± 0.073"}
{"variant": "Q71L", "abundance fitness": "0.031 ± 0.064"}
{"variant": "Q71T", "abundance fitness": "-0.031 ± 0.072"}
{"variant": "Q71A", "abundance fitness": "-0.031 ± 0.073"}
{"variant": "Q71S", "abundance fitness": "0.017 ± 0.066"}
{"variant": "Q71E", "abundance fitness": "0.068 ± 0.098"}
{"variant": "Q71R", "abundance fitness": "-0.091 ± 0.071"}
{"variant": "Q71F", "abundance fitness": "-0.107 ± 0.085"}
{"variant": "F70V", "abundance fitness": "-0.165 ± 0.07"}
{"variant": "F70K", "abundance fitness": "-0.965 ± 0.09"}
{"variant": "F70A", "abundance fitness": "-0.157 ± 0.072"}
{"variant": "F70G", "abundance fitness": "-0.73 ± 0.079"}
{"variant": "F70P", "abundance fitness": "-0.94 ± 0.077"}
{"variant": "F70Y", "abundance fitness": "-0.039 ± 0.076"}
{"variant": "F70I", "abundance fitness": "-0.534 ± 0.082"}
{"variant": "F70L", "abundance fitness": "-0.157 ± 0.061"}
{"variant": "F70D", "abundance fitness": "-1.14 ± 0.11"}
{"variant": "F70M", "abundance fitness": "-0.105 ± 0.084"}
{"variant": "F70E", "abundance fitness": "-1.25 ± 0.11"}
{"variant": "F70S", "abundance fitness": "-0.531 ± 0.064"}
{"variant": "F70Q", "abundance fitness": "-1.01 ± 0.085"}
{"variant": "F70N", "abundance fitness": "-1.25 ± 0.093"}
{"variant": "F70R", "abundance fitness": "-0.797 ± 0.066"}
{"variant": "F70H", "abundance fitness": "-1 ± 0.083"}
{"variant": "F70C", "abundance fitness": "-0.169 ± 0.099"}
{"variant": "F70T", "abundance fitness": "-0.162 ± 0.07"}
{"variant": "F70W", "abundance fitness": "-0.115 ± 0.082"}
